We go through one molecule from paper PMC12221741, “WT EGFR and the oncogenic mutant EGFR (L858R) employ distinct mechanisms for export from the endoplasmic reticulum, a process critical for their activation” (The Journal of Biological Chemistry, 2025).

For this assay, the target named is T1, His-tagged SAR1A^(Δ2–17, H79G) (human, UniProt Q9NR31 1-198, Δ2–17 | H79G).
T1 construct: SAR1A, human, GTPase-defective H79G, N-terminal helix (residues 2-17) deleted; also called SAR1A^(Δ2–17, H79G)-His; His-tagged SAR1A(H79G) deleted of its N-terminal helix; source: purified, as described previously
T1 sequence (Q9NR31 other isoform, or with tags, fused parts or gaps Δ2–17 | H79G | Δ2–17 | H79G | H79G H79G): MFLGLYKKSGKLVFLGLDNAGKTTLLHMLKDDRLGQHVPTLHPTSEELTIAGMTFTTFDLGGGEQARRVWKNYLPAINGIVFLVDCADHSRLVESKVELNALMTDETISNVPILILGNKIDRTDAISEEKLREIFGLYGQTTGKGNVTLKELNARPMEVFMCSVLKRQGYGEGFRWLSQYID
In words: pull-down; peptide-binding assay: polyR peptide coupled through its C-terminal cysteine to thiopyridone-Sepharose 6B beads (5 nmol peptide); 2 μg purified His-tagged SAR1A preincubated with 500 μM GTPγS; HK buffer (100 mM KCl, 20 mM Hepes, pH 7.2), 1 h at 4 °C; immunoblot. To be noted: both partners purified.

No end group written: not given here.

B1: synthetic polyR peptide of EGFR (RRRHIVRKRTLRRC) (peptide)
peptide: RRRHIVRKRTLRRC(Sepharose 6B)
notes: EGFR, juxtamembrane region of the cytosolic domain, amino acid number 669-681; added C-terminal cysteine residue used for coupling to the beads; also called polyR peptides; source: synthetic peptide, bought: GenScript
Take B1: the binding result is on record as “binds”.
